In article doi:10.1101/671156, “Oncoprotein CoAA repeats interact with RNA polymerase II CTD repeats” (bioRxiv, 2019):
Square brackets hold non-standard residues; d marks the D form. Ends that are not written are not given here. * marks the point of attachment. Biotin = O=C1N[C@H]2[C@H](CS[C@H]2CCCCC(=O)*)N1; Ahx = NCCCCCC(=O)O

T1: GST-YxxQ (307-545), recombinant CoAA YxxQ repeats (human, UniProt Q96PK6 307-545)
T1 chain: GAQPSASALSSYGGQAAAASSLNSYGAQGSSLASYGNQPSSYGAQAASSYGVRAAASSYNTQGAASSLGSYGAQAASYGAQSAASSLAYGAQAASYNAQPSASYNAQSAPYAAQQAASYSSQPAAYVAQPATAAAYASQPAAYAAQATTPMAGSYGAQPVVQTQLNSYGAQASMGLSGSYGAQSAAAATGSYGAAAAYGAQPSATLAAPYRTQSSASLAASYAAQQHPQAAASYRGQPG

T2: GST-YxxQ (307-545), recombinant CoAA YxxQ repeats (human, UniProt Q96PK6 307-545)
T2 construct: CoAA (RBM14) YxxQ repeats, residues 307-545; also called YxxQ repeats (307-545); recombinant GST fusion CoAA YxxQ repeats; source: recombinant GST fusion protein
T2 sequence (looked up): T1 chain

B1: non-labeled IERM diheptad peptide (peptide)
peptide: TIERMGSGVERMGPA
notes: diheptad of the IERM repeats of hnRNP M, without biotin label; also called nonlabeled IERM peptide; IERM peptide; source: synthetic peptide
B2: biotin-labeled Ser5-phosphorylated CTD diheptad peptide (peptide)
peptide: KKSYSPTSPSYSPTSPS
modifications: phosphoserine at Ser5 of each heptad (SYSPTpSPSYSPTpSPS); biotin on the N-terminus; C6 spacer (aminocaproic acid) between KK and the peptide
notes: two lysine residues inserted between biotin and the C6 spacer: [Biotin]-KK-C6-peptide; diheptad of the CTD heptad repeats of the RNAP II largest subunit, printed as SYSPTpSPSYSPTpSPS; also called pSer5 CTD; source: synthetic peptide
B3: biotin-labeled IERM diheptad peptide (peptide)
peptide: Biotin-KK[Ahx]TIERMGSGVERMGPA
notes: two lysine residues inserted between biotin and the C6 spacer: [Biotin]-KK-C6-peptide; diheptad of the IERM repeats of hnRNP M; also called IERM peptide; source: synthetic peptide
B4: biotin-labeled unphosphorylated CTD diheptad peptide (peptide)
peptide: KKSYSPTSPSYSPTSPS
modifications: biotin on the N-terminus; C6 spacer (aminocaproic acid) between KK and the peptide
notes: two lysine residues inserted between biotin and the C6 spacer: [Biotin]-KK-C6-peptide; diheptad of the CTD heptad repeats (YSPTSPS) of the RNAP II largest subunit; also called CTD peptide; unphosphorylated CTD peptide; source: synthetic peptide
B5: biotin-labeled Ser2-phosphorylated CTD diheptad peptide (peptide)
peptide: KKSYSPTSPSYSPTSPS
modifications: phosphoserine at Ser2 of each heptad (SYpSPTSPSYpSPTSPS); biotin on the N-terminus; C6 spacer (aminocaproic acid) between KK and the peptide
notes: two lysine residues inserted between biotin and the C6 spacer: [Biotin]-KK-C6-peptide; diheptad of the CTD heptad repeats of the RNAP II largest subunit, printed as SYpSPTSPSYpSPTSPS; also called pSer2 CTD; source: synthetic peptide

Legend:
[1] = molecular target: T1, GST-YxxQ (307-545), recombinant CoAA …; test: ELISA; competition with biotin-labeled pSer5 CTD peptide
[2] = molecular target: T2, GST-YxxQ (307-545), recombinant CoAA …; test: ELISA; competition: GST-YxxQ coated; non-labeled IERM peptide at 12.8-40000 ng/ml against a constant concentration of biotin-labeled CTD peptides; streptavidin-HRP; details: both partners purified
[3] = molecular target: T2, GST-YxxQ (307-545), recombinant CoAA …; test: ELISA; GST-YxxQ or GST-AxxQ (307-545) coated at 500 ng/well on 96-well plate with BSA; biotin-labeled diheptad peptides at 6.4-20000 ng/ml overnight; streptavidin-HRP, luminescence; EC50 by sigmoidal non-linear curve fit; details: both partners purified

Row | Binder | IC50 [1] [nM] | binding result [2] | EC50 [3] [nM]
1 | B1 | 106 | binds | –
2 | B2 | – | – | 101
3 | B3 | – | – | 83
4 | B4 | – | – | 1070
5 | B5 | – | – | 135
